Results from patent US20080009458.

Tested on: p53

Question: GST-COP1 was tested. Which “in vitro ubiquitination of p53 (immunoblot of ubiquitinated species of p53)” value did it give?
Answer: Only with all of the reaction components and p53 present was COP1 able to directly ubiquitinate p53
